Measured values as given in patent US10370438B2, “Histamine-releasing factor (HRF), HRF-receptor and methods of modulating inflammation” (LA JOLLA INSTITUTE FOR ALLERGY AND IMMUNOLOGY, priority 2010, dated 2019).

What was measured:
C57BL/6 mice = assay: OVA-induced mast cell-dependent airway inflammation model; type: in vivo, mouse; settings: intranasal pretreatment before each OVA challenge
Protocol: Mice were sensitized with OVA (10 μg in 0.1 ml saline) at days 0, 7, 14, 21, 28, and 35. Sensitized mice were challenged with OVA (20 μg in 20 μl saline) at days 40, 43 and 46. Some mice were pretreated with GST, GST-N19 (400 μg in PBS), or N19 peptide (40 μg in 2% DMSO-containing PBS) 15 minutes before OVA challenge. Twenty-four hours after the last challenge, lung function in response to methacholine was tested using FlexiVent system (SCIREQ Scientific Respiratory Equipment). Mice were sacrificed and plasma, BAL fluids, and lung tissues were collected. Cells in BAL fluids were counted, and specific cell numbers were calculated after May-Giemsa staining of Cytospin preparations. Immunofluorescence microscopy was performed on membrane-permeabilized and non-permeabilized lung tissues. For staining of lung tissues by staining of H&E and periodic acid-Schiff (PAS), lung tissues were fixed with formalin and embedded in paraffin. For measurement of cytokine levels in lung tissues, lung homogenates were prepared (Oyoshi et al., Immunol. 120:303 (2007)) and cytokines quantified by ELISA. HRF in lung homogenates and plasma was SDS-PAGE and immunoblotting with anti-HRF Ab (Santa Cruz Biotechnology).
Asthma is a type 2 helper T cell-driven, chronic inflammatory lung disease (Wills-Karp, Annu Rev Immunol 17, 255 (1999)). To study HRF involvement in allergic airway inflammation, an airway inflammation model was utilized, in which mast cells are implicated in amplifying antigen-dependent chronic inflammation (Williams, et al., J Exp Med 192, 455 (Aug. 7, 2000)). C57BL/6 mice were first sensitized with OVA (10 μg) at days 0, 7, 14, 21, 28 and 35. At days 40, 43 and 46, mice were intranasally challenged with OVA (20 μg) or PBS. Some mice were intranasally pretreated with GST or GST-N19 (400 μg) before every OVA challenge. Twenty-four hours after the last challenge, mice were sacrificed and BAL fluids and lung tissues were collected. Lung tissues were homogenized.

HRF/IgE binding = assay: Competition ELISA of IgE binding to GST-mHRF-coated wells; parameters: species or system mouse; settings: competitor incubated 2 hours
Protocol: To identify an inhibitor of HRF/Ig interactions to dissect the extracellular function (═HRF function as a cytokine) separate from the intracellular functions in vivo settings, the major Ig-interacting HRF sequence was studied as a specific inhibitor of HRF/Ig interactions. IgE molecules were incubated in GST-mHRF-coated wells in the presence or absence (−) of the indicated concentrations of competitors, GST-N19, GST-mHRF or mHRF-His6 for 2 hours. After incubation, bound-IgE was detected by incubation with biotinylated anti-mouse IgE mAb, followed by streptavidin-HRP. […] By contrast, none of the shorter mHRF peptides tested (residues 1-6, 1-12, 5-19, and 9-19) inhibited HRF/IgE binding. GST-N19 inhibited HRF/IgG binding as well.

IgE-sensitized mice = assay: Passive cutaneous anaphylaxis induced by mHRF in IgE-sensitized ears; type: in vivo, mouse; settings: 8 hours after injection in IgE-sensitized ears
Protocol: Mouse ears were first sensitized with 0.5 μg anti-TNP (C38-2 in the right ear and C48-2 in the left ear) IgE. After 24 hours, Evans' blue dye was intravenously (i.v.) injected, and TNP26-BSA (Ag: 0.1 μg) or mHRF-His6 (10 μg) were immediately injected into the ears. The acute (30 minute) reactions were analyzed by measurement of Evans' blue dye leakage. The ear thickness was measured using a micrometer (Mitutoyo) at 0.5, 1, 2, 4, 6, 8, 12, and 24 hours after mHRF-His6challenge. As a negative control, saline was injected into the ears in place of antigen or HRF challenge. IgG-mediated response was performed by sensitization with 2 μg IgG1 (in place of anti-TNP IgE) and challenge with anti-mouse IgG1 Ab (0.6 μg: Southern Biotechnology, in place of TNP26-BSA). Engraftmanet of Kit^W-sh/W-sh mice with BMMCs was performed 6 weeks before study (Nakano, T., et al. J Exp Med 162:1025-1043 (1985)). In some studies, mice were sensitized and stimulated as described above but without Evans blue.
Here, mice were sensitized with the IgE. […] After 30 minutes, mice were sacrificed, and the amount of Evans blue dye leaked from the ears measured. […]
mHRF-His6 (H) was injected in IgE-sensitized ears and LPR was analyzed by measurement of ear thickness at 8 hours after injection. […]
IGELa2 IgE was intradermally injected into ears. […] Eight hours after injection, the ear thickness was measured (FIG. 7).

peritoneal mast cells = assay: β-hexosaminidase release (degranulation); type: cell-based, mouse; settings: cells sensitized with HRF-reactive IgE, 40 minutes
Protocol: Mast cells were sensitized with 0.5 μg/ml IgE overnight. The mast cells were stimulated with TNP26-BSA or mHRF-His6 for 40 minutes in Tyrode's buffer. The amount of β-hexosaminidase (β-hex) in both supernatants and cell pellets was measured. The percentage of β-hex release was calculated as follows: % release=β-hex in supernatants/β-hex in supernatants+β-hex in cell pellets)
These hypersensitivity reactions appear to be dependent on mast cells, as the reactions were abolished in mast cell-deficient Kit^W-sh/W-sh mice and restored in Kit^W-sh/W-sh mice engrafted with WT BMMCs (FIG. 6A). […] Therefore, HRF and HRF-reactive IgE can induce anaphylactic responses in a mast cell- and FcεRI-dependent manner. Consistent with this, peritoneal mast cells sensitized with the HRF-reactive, but not the HRF-nonreactive, IgE were activated upon stimulation with HRF (FIG. 6D). After 40 minutes, both supernatants and cell pellets were collected and β-hexosaminidase release was analyzed (FIG. 6D).

Unimmunized mice = assay: Intranasal HRF in naïve mice, BAL differential cell counting; type: in vivo, mouse; settings: for Lung inflammation: naïve C57BL/6 (WT) mice, 40 μg intranasally three times
Protocol: In light of the presence of HRF-reactive IgG in naïve mice and recent studies reporting the role of mast cells in the initiation of adaptive immune responses (Galli, et al., Nat Immunol 6, 135 (February, 2005)), the effect of HRF on naïve mice was assessed. Unimmunized C57BL/6 (WT), μMT, and FcRγ^−/− mice (n=5 per cohort) were treated intranasally with 40 μg mHRF-His6 three times every third day. PBS served as a negative control. BAL procedures were conducted 24 hours after the last HRF administration. Differential cell counting was performed on cytospin preparations stained with May-Giemsa. […] FcRγ is shared by multiple Fc receptors including FcεRI.

IgE = assay: ELISA with monomeric and dimeric HRF-His6 as capturing agent; type: binding, mouse
Protocol: Monomeric and dimeric HRF-His6 proteins purified by HPLC were coated onto plastic wells. After blocking, 206 (HRF-nonreactive) and IGELa2 (HRFreactive) IgEs were incubated. Bound IgEs were detected by incubation with biotin-conjugated anti-mouse IgE antibody, followed by incubation with horseradish peroxidase-conjugated streptavidin. The absorbance at 450 nm was measured after development of the color. […] The dimerizing ability of HRF with multiple Ig-binding sites strongly indicates the potential of HRF to crosslink Ig-bound Fc receptors.

## N19 peptide: synthetic non-fusion N19 peptide, N-terminal 19 residue peptide of HRF (MIIYRDLISHDELFSDIYK; UniProt P63028 1-19, looked up, fragment)
C57BL/6 mice
  Airway inflammation: abrogated

## residues 9-19: shorter mHRF peptide, residues 9-19 (SHDELFSDIYK; UniProt P63028 9-19, looked up, fragment)
HRF/IgE binding
  Inhibition of IgE binding to immobilized GST-mHRF: none

## residues 5-19: shorter mHRF peptide, residues 5-19 (RDLISHDELFSDIYK; UniProt P63028 5-19, looked up, fragment)
HRF/IgE binding
  Inhibition of IgE binding to immobilized GST-mHRF: none

## residues 1-12: shorter mHRF peptide, residues 1-12 (MIIYRDLISHDE; UniProt P63028 1-12, looked up, fragment)
HRF/IgE binding
  Inhibition of IgE binding to immobilized GST-mHRF: none

## residues 1-6: shorter mHRF peptide, residues 1-6 (MIIYRD; UniProt P63028 1-6, looked up, fragment)
HRF/IgE binding
  Inhibition of IgE binding to immobilized GST-mHRF: none

B1: mHRF-His6: C-terminally hexahistidine-tagged recombinant mouse histamine releasing factor (protein)
chain: MIIYRDLISHDELFSDIYKIREIADGLCLEVEGKMVSRTEGAIDDSLIGGNASAEGPEGEGTESTVVTGVDIVMNHHLQETSFTKEAYKKYIKDYMKSLKGKLEEQKPERVKPFMTGAAEQIKHILANFNNYQFFIGENMNPDGMVALLDYREDGVTPFMIFFKDGLEMEKCHHHHHH
IgE-sensitized mice
  Late-phase reaction (LPR), ear swelling: as high as that induced by antigen
Peritoneal mast cells
  Mast cell activation (β-hexosaminidase release): activated
Unimmunized mice; B cell-deficient (μMT) or FcRγ−/− mice
  HRF effects (lung inflammation): not observed
Unimmunized mice
  Lung inflammation: induced weak lung inflammation
Unimmunized mice; listed as HRF
  Lung inflammation: weak lung inflammation is induced
Unimmunized mice; naïve FcεRIα−/− mice
  HRF-induced lung inflammation: abrogated or reduced
Unimmunized mice; naïve WT mice
  Neutrophils and eosinophils in BAL fluids: increased
IgE; dimeric form as capturing agent
  Binding to IgE: can bind
IgE; monomeric form as capturing agent
  Binding to IgE: can bind
